Test results from paper PMC5708776, “Crystal structure of a tripartite complex between C3dg, C-terminal domains of factor H and OspE of Borrelia burgdorferi” (PLoS ONE, 2017).

Target: T1, C3dg (residues 955 to 1303 of complement C3), C1010A (UniProt P01024 955-1303, C1010A)
T1 construct: complement C3, C3dg fragment, residues 955-1303; C1010A prevents thioester formation; a second change (printed A1153E) was made to reverse a mutation of the original gene, so that the natural residue stands at 1153; The His6 tag was moved from the N-terminus to the C-terminus (TEV-His6) and removed with TEV protease; residues of the TEV site probably remain at the C-terminus; also called C3dg …
Test: crystal structure; three purified proteins mixed at a 1:1:1 molar ratio before crystallisation at 20 °C (PEG 3350, Hepes pH 7.5 or Tris pH 8.5); 3.18 Å; three heterotrimers in the asymmetric unit
Details: both partners purified

T1 sequence (P01024 955-1303 C1010A): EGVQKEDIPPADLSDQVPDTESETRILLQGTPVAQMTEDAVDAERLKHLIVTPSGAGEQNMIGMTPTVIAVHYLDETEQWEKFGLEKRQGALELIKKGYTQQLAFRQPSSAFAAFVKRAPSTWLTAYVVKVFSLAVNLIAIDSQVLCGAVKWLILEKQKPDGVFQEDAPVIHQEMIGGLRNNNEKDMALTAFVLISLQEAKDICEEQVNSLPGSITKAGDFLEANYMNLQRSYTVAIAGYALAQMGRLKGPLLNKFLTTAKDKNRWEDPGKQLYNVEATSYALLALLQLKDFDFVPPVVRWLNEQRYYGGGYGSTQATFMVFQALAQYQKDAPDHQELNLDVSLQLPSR

B1: C-terminal domains 19-20 of human factor H (FH19-20), wild type (domain or fragment)
chain: KDSTGKCGPPPPIDNGDITSFPLSVYAPASSVEYQCQNLYQLEGNKRITCRNGQWSEPPKCLHPCVISREIMENYNIALRWTAKQKLYSRTGESVEFVCKRGYRLSSRSHTLRTTCWDGKLEYPTCAKR
notes: human complement factor H, domains (SCRs) 19-20; also called C-terminus of human factor H
B1: binds.
